{"source": "the nanobody polyreactivity screen of Harvey et al. (2022)"}
{"assay": "yeast display, Sf9 membrane polyspecificity reagent, FACS + sequencing; frameworks hold sequencing errors", "summary_of_the_method": "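Synthetic nanobody libraries on Saccharomyces cerevisiae BJ5465 were galactose-induced for 36–48 hours, stained 1 hour at 4 °C with 10% biotinylated, detergent-solubilized Sf9 membrane reagent and enriched on streptavidin microbeads. FACS then separated cells into low and high (top ~1%) gates by anti-HA (expression) and streptavidin (reagent binding) fluorescence. Genes were colony-PCR amplified, MiSeq 2 × 250 sequenced and CDR-length filtered. A clone's polyreactivity label is that of its gate of origin.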"}
{"sequence": "QVQLVESGGGLVQAGGSLRLSCAASGRTFRYYAMGWYIQAPGKERELVATITGSGGSTYYADSVKGRFTISRDNAKNTVYLQMNSLKPEDTAVYYCNARKVRYPYRWYDYWGQGTQVTVSS", "polyreactivity (PSR sort gate)": "high polyreactivity"}
{"sequence": "QVQLVESGGGLVQAGGSLRLSCAASGRTFRYYAMGWYRKAPGKERELVASIRGGGGTNYADSVKGRFTISRDNAKNTVYLQMNSLKPEDTAVYFCAASVGYSRVWLDYWGQGTQVTVSS", "polyreactivity (PSR sort gate)": "high polyreactivity"}
{"sequence": "QVQLVESGGGLVQAGGSLRLSCAASGRTFRYYAMGWYRQAPGKERELVAAINRGGSTYYADSVKGRFTISRDNAKNTVYLQMNSLKPEDTAVYYCNTARGSKDPPHYYWGQGSQVTVSS", "polyreactivity (PSR sort gate)": "high polyreactivity"}
{"sequence": "QVQLVESGGGLVQAGGSLRLSCAASGRTFRYYAMGWYRQAPGKERELVAAINWNGGRTYYADSVKGRFTISRDNAKNTVYLQMNSLKPEDTAVYYCAAYHYRSPVTGDYWGQGTQVTVSS", "polyreactivity (PSR sort gate)": "high polyreactivity"}
{"sequence": "QVQLVESGGGLVQAGGSLRLSCAASGRTFRYYAMGWYRQAPGKERELVAAIRTSGSTNYADSVKGRFTISRDNAKNTVYLQMNSLKPEDTAVYYCAAQPYWRYPYRAERDYWGQGTQVTVSS", "polyreactivity (PSR sort gate)": "high polyreactivity"}
{"sequence": "QVQLVESGGGLVQAGGSLRLSCAASGRTFRYYAMGWYRQAPGKERELVAAISVRTGSTSYADSVKGRFTISRDNAKNTVYLQMNSLKPEDTAVYYCNAPQPGKGRTRTRYYYWGQGTQVTVSS", "polyreactivity (PSR sort gate)": "high polyreactivity"}
{"sequence": "QVQLVESGGGLVQAGGSLRLSCAASGRTFRYYAMGWYRQAPGKERELVAAISWDGARSYYADSVKGRFTISRDNAKNTVYLQMNSLKPEDTAVYYCAADFPGGTDRYYPMDYWGQGTQVTVSS", "polyreactivity (PSR sort gate)": "low polyreactivity"}
{"sequence": "QVQLVESGGGLVQAGGSLRLSCAASGRTFRYYAMGWYRQAPGKERELVAAITSSGGSTYYADSVKGRFTISRDNAKNTVYLQMNSLKPEDTAVYYCNRTPYHAPWQDALYRYGYWGQGTQVTVSS", "polyreactivity (PSR sort gate)": "high polyreactivity"}
{"sequence": "QVQLVESGGGLVQAGGSLRLSCAASGRTFRYYAMGWYRQAPGKERELVADISSTGRTYYADSVKGRFTISRDNAKNTVYLQMNSLKPEDTAVYYCNADYFFEFDYWGQGTQVTVSS", "polyreactivity (PSR sort gate)": "low polyreactivity"}
{"sequence": "QVQLVESGGGLVQAGGSLRLSCAASGRTFRYYAMGWYRQAPGKERELVASITGSGGSTTYADSVKGRFTISRDNAKNTVYLQMNSLKPEDTAVYYCAVRYPYYSYRAKLGYWGQGTQVTVSS", "polyreactivity (PSR sort gate)": "high polyreactivity"}
{"sequence": "QVQLVESGGGLVQAGGSLRLSCAASGRTFRYYAMGWYRQAPGKERELVASITKRGGSTYYADSVKGRFTISRDNAKNTVYLQMNSLKPEDTAVYYCNTRTGSFFQGYYWGQGTQVTVSS", "polyreactivity (PSR sort gate)": "high polyreactivity"}
{"sequence": "QVQLVESGGGLVQAGGSLRLSCAASGRTFRYYAMGWYRQAPGKERELVASITSGGRTYYADSVKGRFTISRDNAKNTVYLQMNSLKPEDTAVYYCAASTRYEGNYWGQGTQVTVSS", "polyreactivity (PSR sort gate)": "high polyreactivity"}
{"sequence": "QVQLVESGGGLVQAGGSLRLSCAASGRTFRYYAMGWYRQAPGKVRELVAAINWSGGSTYYADSVKGRFTISRDNAKNTVYLQMNSLKPEDTAVYYCAAVGHPSPPRTDLYYWGQGTQVTVSS", "polyreactivity (PSR sort gate)": "low polyreactivity"}
{"sequence": "QVQLVESGGGLVQAGGSLRLSCAASGRTFRYYAMGWYRQEPGKERELVAVITSGASTYYADSVKGRFTISRDNAKNTVYLQMNCLKPEDTAVYYCNARYSWKYDSWGQGTQVTVSS", "polyreactivity (PSR sort gate)": "high polyreactivity"}
{"sequence": "QVQLVESGGGLVQAGGSLRLSCAASGRTFRYYAMGWYRQPPGKERELVAAISISGGNTYYADSVKGRFTISRDNAKNTVYLQMNSLKPEDTAVYYCAAAGRGSGYDYWGQGTQVTVSS", "polyreactivity (PSR sort gate)": "high polyreactivity"}
{"sequence": "QVQLVESGGGLVQAGGSLRLSCAASGRTFRYYTKGWSRQAPGKERELVADINTSVGSTDYADSVKGRFTISRDNAKNTVYLQMNSLKPEDTAVYYCAKVGFTYYAVDYWGQGTQVTVSS", "polyreactivity (PSR sort gate)": "high polyreactivity"}
{"sequence": "QVQLVESGGGLVQAGGSLRLSCAASGRTFRYYVMGWYRQAPGKERELVADISRGGGRTRYADSVKGRFTISRDNAKNTVDLQMNSLKPEDTAVYYCAARSYTGQFGYWGQGTQVTVSS", "polyreactivity (PSR sort gate)": "high polyreactivity"}
{"sequence": "QVQLVESGGGLVQAGGSLRLSCAASGRTFSAYAMGWYRQAPGKERELVAAISRRGGSTYYADSVKGRFTISRDNAKNTVYLQMNSLKPEDTAVYYCAADVYKQYGYYYWGQGTQVTVSS", "polyreactivity (PSR sort gate)": "high polyreactivity"}
{"sequence": "QVQLVESGGGLVQAGGSLRLSCAASGRTFSAYAMGWYRQAPGKERELVARITSVDSTNYADSVKGRFTISRDNAKNTVYLLMNSLKPEDTAVYYCNATFGYPFVDYDDYWGQGTQVTVSS", "polyreactivity (PSR sort gate)": "low polyreactivity"}
{"sequence": "QVQLVESGGGLVQAGGSLRLSCAASGRTFSFYAMGWYRQAPGKERELVAGIDWDDGSTSYADSVKGRFTISRDNAKNTVYLQMNSLKPEDTAVYYCAADIGYDVYNDYDYWGQGTQVTVSS", "polyreactivity (PSR sort gate)": "low polyreactivity"}
{"sequence": "QVQLVESGGGLVQAGGSLRLSCAASGRTFSGNAMGWYRQAPGKERELVAAINWRGGRTYYADSVKGRFTISRDNAKNTVYLQMNSLKPEDTAVYYCAVSAYKGYDYWGQGTQVTVSS", "polyreactivity (PSR sort gate)": "high polyreactivity"}
{"sequence": "QVQLVESGGGLVQAGGSLRLSCAASGRTFSGNARGWYRQAPGKERELVATITRRGGSTYYADSVKGRFTISRDNAKNTVYLQMNSLKPEDTAVYYCAARRVVNGGQGYESWGQGTQVTVSS", "polyreactivity (PSR sort gate)": "high polyreactivity"}
{"sequence": "QVQLVESGGGLVQAGGSLRLSCAASGRTFSGYAMGWDRQAPGKERELDAAISRGGSTNYADSVKGRFTISRDNAKNTVYLQMNSLKPEDTAVYYCAVRVYYGWAQPGYYYWGQGTQVTVSS", "polyreactivity (PSR sort gate)": "high polyreactivity"}
{"sequence": "QVQLVESGGGLVQAGGSLRLSCAASGRTFSGYAMGWYRQAPGKERELVAAISSGGGSTYYADSVKGRFTISRDNAKNSVYLQMNSLKPEDTAVYYCAADGYPGDYDYWGQGTQVTVSS", "polyreactivity (PSR sort gate)": "low polyreactivity"}
{"sequence": "QVQLVESGGGLVQAGGSLRLSCAASGRTFSGYVMGWYRQAPGKERELVATINGSGASTYYADSVKGRFTISRDNAKNTVYLQTNSLKPEDTAVYYCAAKRYRPKYEYYYWGQGTQVTVSS", "polyreactivity (PSR sort gate)": "high polyreactivity"}
{"sequence": "QVQLVESGGGLVQAGGSLRLSCAASGRTFSHNAMGWYRQAPGKERELVATINSGGSTYADSVKGRFTISRDNAKNTVYLQMNSLKPEDTAVYYCNAAHGSRAFFGGYDYWGQGTQVTVSS", "polyreactivity (PSR sort gate)": "high polyreactivity"}
{"sequence": "QVQLVESGGGLVQAGGSLRLSCAASGRTFSKNAMGWYRQAPGKERELVADISRRGGRTYYADSVNGRFTISRDNAKNTVYLQMNSLKPEDTAVYYSAARRRGSVGVGYAYPYNYWGQGTQVTVSS", "polyreactivity (PSR sort gate)": "high polyreactivity"}
{"sequence": "QVQLVESGGGLVQAGGSLRLSCAASGRTFSNNAMGWYRQAPGKERELVAAISSTGGRTYYADSVKGRFTISRDNAKNTGYLQLNSLKPEDTAVYYCAATYVHYPSLGYDYWGQGTQVTVSS", "polyreactivity (PSR sort gate)": "high polyreactivity"}
{"sequence": "QVQLVESGGGLVQAGGSLRLSCAASGRTFSPYAMAWYRQAPGKEREFVAAIRVRGGSTYYADSVKGRFTISRDNAKNTVYLQMNSLKPEDTAVYYCNAQYLVYNGYPYLYDYWGQGTQVTVSS", "polyreactivity (PSR sort gate)": "high polyreactivity"}
{"sequence": "QVQLVESGGGLVQAGGSLRLSCAASGRTFSPYAMGWYRQAPGKERELVAAITNGGSTHYADSVKGRFTISRDNAKNTVYLQMNSLKPEDTAVYYPYDYWGQGTQVTVSS", "polyreactivity (PSR sort gate)": "low polyreactivity"}
{"sequence": "QVQLVESGGGLVQAGGSLRLSCAASGRTFSPYAMGWYRQAPGKERELVAAITSRGASTYYADSVKGRFTISRDNAKNTVYLQMNSLKPEDTAVYDCNSGRTYRRLGDYWGQGTQVTVSS", "polyreactivity (PSR sort gate)": "high polyreactivity"}
{"sequence": "QVQLVESGGGLVQAGGSLRLSCAASGRTFSQNAMGWYRQAPGKERELVAAISWSGGRTYYADSVKGRFTISRDNAKNTVYLQMNSLKPEDTAVYYCAKSQHRTYYYWGQGTQVTVSS", "polyreactivity (PSR sort gate)": "high polyreactivity"}
{"sequence": "QVQLVESGGGLVQAGGSLRLSCAASGRTFSQYAMGWYRQAPRKERELVAAISWGGRTYYADSVKGRFTISRDNAKNTVYLQMNSLKPEDTAVYYCAASSKLTYYEENHWGQGTQVTVSS", "polyreactivity (PSR sort gate)": "high polyreactivity"}
{"sequence": "QVQLVESGGGLVQAGGSLRLSCAASGRTFSRNAMGRYRQAPGKVRELVATISSSGVRTYYADSVKGRFTMSRDNAKNTVYLQMNSLKPEETAVYYWAAAWRYYSAASGYDYWGQGTLVTVSS", "polyreactivity (PSR sort gate)": "low polyreactivity"}
{"sequence": "QVQLVESGGGLVQAGGSLRLSCAASGRTFSRYAMGWYRQAPGKERELVAAISKSSGTTSYADSVKGRFTISRDNAKNTVYLQMKSQKPEDTAVYYCAAGITGRYYGVRFSEDYWGQGTQVTVSS", "polyreactivity (PSR sort gate)": "high polyreactivity"}
{"sequence": "QVQLVESGGGLVQAGGSLRLSCAASGRTFSRYAMGWYRQAPGKERELVAAISSSGGSTYYADSVKGRFTISRDNAKNTVYLQMNSLKPEDTAVYYCAKYFIRDNRYDYWGQGTQVTVSS", "polyreactivity (PSR sort gate)": "high polyreactivity"}
{"sequence": "QVQLVESGGGLVQAGGSLRLSCAASGRTFSRYTMGWYRQAPGKERELVARISQRGGSTYYADSVKGRFTISRDYAKNTVYLQMNSLKPEDTAVYYCAKKTYSPYGGYDSWGQGTQVTVSS", "polyreactivity (PSR sort gate)": "high polyreactivity"}
{"sequence": "QVQLVESGGGLVQAGGSLRLSCAASGRTFSSYTMGWYRQAPGKERELVAAISWRGGSTYYADSVKGRFTISRDNAKYTVYLQMTSLKPEDTAVYYCNADVYSTYYNYNYWGQGTQVTVSS", "polyreactivity (PSR sort gate)": "high polyreactivity"}
{"sequence": "QVQLVESGGGLVQAGGSLRLSCAASGRTFSTNAMGLYRQAPGKERELVAAISASGGSTYYADSVKGRFTISRDNAKTTVYLQMNSLKPEDTAVYYCAAYPGQWRTGYDYWGQGTQVTVSS", "polyreactivity (PSR sort gate)": "high polyreactivity"}
{"sequence": "QVQLVESGGGLVQAGGSLRLSCAASGRTFSTNAMGWYRQAPGKEREFVAAITGSGGSTYYADSVKGRFTISRDNAKNTVYLQMNSLKPEDTAVYYCAKRSAWHTYRYGYWGQGTQVTVSS", "polyreactivity (PSR sort gate)": "high polyreactivity"}
{"sequence": "QVQLVESGGGLVQAGGSLRLSCAASGRTFSVNAMGWYRQAPGKERELVAAISWDGGSTYYADSVKGRFTISRDNAKNTVYLQMNSLKPVDTAVYYCNKDLYYAYDYWGQGTQVTVSS", "polyreactivity (PSR sort gate)": "low polyreactivity"}
